The results in this text go back to article PMC5726764 (Biotechnology and bioengineering, 2017).

Like-named read-outs stand apart in the source and are kept apart here.

Usually Kd stands for the free concentration of one partner at which half of the binding sites on the other are occupied at equilibrium, for simple one-to-one binding. The stoichiometry N is the number of molecules, sites or subunits per partner or assembly. By kon is commonly meant the second-order rate constant of association. A lower kon goes with slower complex formation. One may read the koff as the first-order rate constant of dissociation.

For test [1], the target named is scFv-2D10, single-chain antibody of mAb 2D10. Briefly: ITC.
Test [2] deals with scFv-1 (120_6290_1), de novo designed single-chain antibody. Description: ITC. (In general: ITC needs no label: the signal is the heat of the interaction.)
In test [3] the target is T1, dodecapeptide antigen DVFYPYPYASGS (as used in biolayer interferometry) (synthetic peptide).
T1 chain: DVFYPYPYASGS
Description: BLI. For orientation: BLI is a label-free optical method that tracks binding on a fibre tip over time.

The target in test [4] is scFv-2 (120_15439_2), de novo designed single-chain antibody. Description: BLI.
For test [5] the target is unchanged. Description: BLI. The source holds these as a separate data set.
Test [6] has the same target. Description: BLI. The source holds these as a separate data set.
The target in test [7] is scFv-4 (140_15899_5), de novo designed single-chain antibody. Description: BLI.
Test [8] has as its target scFv-1 (120_6290_1), de novo designed single-chain antibody. Description: BLI.
The target in test [9] is scFv-2 (120_15439_2), de novo designed single-chain antibody. Description: BLI. This is another data set of the same source.

In test [1], DVFYPYPYASGS [dodecapeptide antigen …, not conjugated to BSA (as used in ITC)] registered a dissociation constant (Kd) of 1 nM and a stoichiometry N of 1. The stoichiometry N in [2] was found to be 1.

B1: scFv-2D10, single-chain antibody of mAb 2D10 (scFv, V domains shown)
VH: EIQLQQSGPELVKPGASVKISCKASGYSFTDYIMLWVKQSHGKSLEWIGNINPYYGSTSYNLKFKGKATLTVDKSSSTAYMQLNSLTSEDSAVYYCARKNYYGSSLDYWGQGTTLTVSS
VL: DVVMTQTPFSLPVSLGDQASISCRSSQSLVHSNGNTYLHWYLQKPGQSPKLLIYKVSNRFSGVPDRFSGSGSGTDFTLKISRVEAEDLGVYFCSQSTHVPYTFGGGTKLEIK
On to B1, for which, in test [3], the Kd was determined as 3.8 nM and the kon turned out to be 206000 M⁻¹ s⁻¹.

On to DVFYPYPYASGS [dodecapeptide antigen … (as used in biolayer interferometry)], for which the Kd in [4] worked out at 2.55 nM; in [5], 21.5 nM; in [6], 14.4 nM; in [7], 23.8 nM; in test [8], 8.9 nM; in test [9] it was 17.5 nM. Besides, the results for the kobs in test [6], in [7] and in test [8] were 0.0041 s⁻¹, 0.0039 s⁻¹ and 0.0033 s⁻¹, respectively. Besides, the koff in test [6] is 0.00132 s⁻¹; in [7], 0.00171 s⁻¹.
